Assay results: patent US20250011456A1 (VILLANELLE LIFE SCIENCE, published 2025)
Where a chain is given by its changes, count along the chain named.

T1: Recombinant Human CD14/His Protein (B294801) (human, UniProt P08571 20-352, limits assumed)
T1 construct: Bought His-tagged recombinant human CD14; also called recombinant human CD14 antigen; CD14 antigen; not shown: histidine tag
T1 sequence (looked up): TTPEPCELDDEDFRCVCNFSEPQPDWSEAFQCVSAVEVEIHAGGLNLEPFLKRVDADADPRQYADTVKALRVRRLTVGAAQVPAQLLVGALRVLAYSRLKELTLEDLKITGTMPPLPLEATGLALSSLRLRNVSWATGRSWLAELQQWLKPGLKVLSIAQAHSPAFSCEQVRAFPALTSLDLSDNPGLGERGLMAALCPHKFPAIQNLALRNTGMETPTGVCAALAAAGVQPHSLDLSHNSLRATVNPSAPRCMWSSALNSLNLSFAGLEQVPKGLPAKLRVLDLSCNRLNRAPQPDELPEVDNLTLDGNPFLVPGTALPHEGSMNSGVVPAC

B1: Antibody No. MPDDAD001 (HU1127-hVH3/hVL3-1) (antibody, IgG1, V domains shown)
VH: QLQLQESGPGLVKPSETLSLTCTVSGGSISSDSAWNWIRQPPGKGLEWIGYISYSGSTSYNPSLKSRVTISRDTSKNQFSLKLSSVTAADTAVYYCVRGLRFAYWGQGTLVTVSS
VL: DIQLTQSPSSLSASVGDRVTITCRASESVDSYVDSFLHWYQQKPGKAPKLLIYRASNLQSGVPSRFSGSGSRTDFTLTISSLQPEDVATYYCQQSNEDPYTFGQGTKLEIK
notes: D6DD3D014 with the light chain PTM site NS (VL amino acids 34, 35) changed to DS; Tested as a recombinant antibody with hFc tag, 144 kDa
B2: Antibody No. MPDDAD002 (HU1127-hVH3/hVL3-2) (antibody, V domains shown)
VH: B1 VH
VL: B1 VL with D34S
notes: D6DD3D014 with the light chain PTM site NS (VL amino acids 34, 35) changed to SS; Tested as a recombinant antibody with hFc tag, 144 kDa
B3: Antibody No. MPDDAD003 (HU1127-hVH3/hVL3-3) (antibody, V domains shown)
VH: B1 VH
VL: B1 VL with D34T
notes: D6DD3D014 with the light chain PTM site NS (VL amino acids 34, 35) changed to TS; Tested as a recombinant antibody with hFc tag, 144 kDa
B4: Antibody No. MPDDAD004 (HU1127-hVH3/hVL3-4) (antibody, V domains shown)
VH: B1 VH
VL: B1 VL with D34N, S35A
notes: D6DD3D014 with the light chain PTM site NS (VL amino acids 34, 35) changed to NA; Tested as a recombinant antibody with hFc tag, 144 kDa
B5: Antibody No. MPDDAD005 (HU1127-hVH3/hVL3-5) (antibody, V domains shown)
VH: B1 VH
VL: B1 VL with D34Q
notes: D6DD3D014 with the light chain PTM site NS (VL amino acids 34, 35) changed to QS; Tested as a recombinant antibody with hFc tag, 144 kDa
B6: Antibody No. D6DD3D001 (HU1127-mVH/mVL) (antibody, human IgG1, kappa, V domains shown)
VH: DVQLQQSGPGLVKPSQSLSLTCTVTGYSITSDSAWNWIRQFPGNRLEWMGYISYSGSTSYNPSLKSRISITRDTSKNQFFLQLNSVTTEDTATYYCVRGLRFAYWGQGTLVTVSS
VL: DIVLTQSPASLAVSLGQRATISCRASESVDSYVNSFLHWYQQKPGQPPKLLIYRASNLQSGIPARFSGSGSRTDFTLTINPVEADDVATYYCQQSNEDPYTFGGGTKLEIKR
notes: Mouse variable domains of Atibuclimab on human IgG1 constant regions (hFc, 146 kDa); also called Original IgG1 antibody; mouse antibody
B7: Antibody No. D6DD3D008 (HU1127-hVH2/hVL2) (antibody, human IgG1, kappa)
heavy: not shown
light: DIVLTQSPDSLAVSLGERATINCRASESVDSYVNSFLHWYQQKPGQPPKLLIYRASNLQSGVPDRFSGSGSRTDFTLTISSLQAEDVAVYYCQQSNEDPYTFGQGTKLEIKRTVAAPSVFIFPPSDEQLKSGTASVVCLLNNFYPREAKVQWKVDNALQSGNSQESVTEQDSKDSTYSLSSTLTLSKADYEKHKVYACEVTHQGLSSPVTKSFNRGEC
notes: Humanized IgG1 (hFc)
B8: Antibody No. D6DD3D011 (HU1127-hVH5/hVL2) (antibody, human IgG1, kappa)
heavy: not shown
light: B7 light
notes: Humanized IgG1 (hFc)
B9: Antibody No. D6DD3D009 (HU1127-hVH3/hVL2) (antibody, human IgG1, kappa)
heavy: not shown
light: B7 light
notes: Humanized IgG1 (hFc)
B10: Antibody No. D6DD3D010 (HU1127-hVH4/hVL2) (antibody, human IgG1, kappa)
heavy: not shown
light: B7 light
notes: Humanized IgG1 (hFc)
B11: Antibody No. D6DD3D007 (HU1127-hVH1/hVL2) (antibody, human IgG1, kappa, V domains shown)
VH: B1 VH with L2V, E16Q, P41H
VL: DIVLTQSPDSLAVSLGERATINCRASESVDSYVNSFLHWYQQKPGQPPKLLIYRASNLQSGVPDRFSGSGSRTDFTLTISSLQAEDVAVYYCQQSNEDPYTFGQGTKLEIKR
notes: Humanized IgG1 (hFc)
B12: Antibody No. D6DD3D003 (HU1127-hVH2/hVL1) (antibody, human IgG1, kappa)
heavy: not shown
light: EIVLTQSPATLSLSPGERATLSCRASESVDSYVNSFLHWYQQKPGQAPRLLIYRASNLQSGIPARFSGSGSRTDFTLTISSLEPEDVAVYYCQQSNEDPYTFGQGTKLEIKRTVAAPSVFIFPPSDEQLKSGTASVVCLLNNFYPREAKVQWKVDNALQSGNSQESVTEQDSKDSTYSLSSTLTLSKADYEKHKVYACEVTHQGLSSPVTKSFNRGEC
notes: Humanized IgG1 (hFc)
B13: Antibody No. D6DD3D005 (HU1127-hVH4/hVL1) (antibody, human IgG1, kappa)
heavy: not shown
light: B12 light
notes: Humanized IgG1 (hFc)
B14: Antibody No. D6DD3D006 (HU1127-hVH5/hVL1) (antibody, human IgG1, kappa)
heavy: not shown
light: B12 light
notes: Humanized IgG1 (hFc)
B15: Antibody No. D6DD3D004 (HU1127-hVH3/hVL1) (antibody, human IgG1, kappa)
heavy: not shown
light: B12 light
notes: Humanized IgG1 (hFc)
B16: Antibody No. D6DD3D002 (HU1127-hVH1/hVL1) (antibody, human IgG1, kappa, V domains shown)
VH: B1 VH with L2V, E16Q, P41H
VL: EIVLTQSPATLSLSPGERATLSCRASESVDSYVNSFLHWYQQKPGQAPRLLIYRASNLQSGIPARFSGSGSRTDFTLTISSLEPEDVAVYYCQQSNEDPYTFGQGTKLEIKR
notes: Humanized IgG1 (hFc)
B17: Antibody No. D6DD3D013 (HU1127-hVH2/hVL3) (antibody, human IgG1, kappa)
heavy: not shown
light: DIQLTQSPSSLSASVGDRVTITCRASESVDSYVNSFLHWYQQKPGKAPKLLIYRASNLQSGVPSRFSGSGSRTDFTLTISSLQPEDVATYYCQQSNEDPYTFGQGTKLEIKRTVAAPSVFIFPPSDEQLKSGTASVVCLLNNFYPREAKVQWKVDNALQSGNSQESVTEQDSKDSTYSLSSTLTLSKADYEKHKVYACEVTHQGLSSPVTKSFNRGEC
notes: Humanized IgG1 (hFc)
B18: Antibody No. D6DD3D014 (HU1127-hVH3/hVL3) (antibody, human IgG1, kappa)
heavy: not shown
light: B17 light
notes: Humanized IgG1 (hFc); Parent of the PTM-site-removed antibodies MPDDAD001-005
B19: Antibody No. D6DD3D015 (HU1127-hVH4/hVL3) (antibody, human IgG1, kappa)
heavy: not shown
light: B17 light
notes: Humanized IgG1 (hFc)
B20: Antibody No. D6DD3D016 (HU1127-hVH5/hVL3) (antibody, human IgG1, kappa)
heavy: not shown
light: B17 light
notes: Humanized IgG1 (hFc)
B21: Antibody No. D6DD3D012 (HU1127-hVH1/hVL3) (antibody, human IgG1, kappa, V domains shown)
VH: B1 VH with L2V, E16Q, P41H
VL: DIQLTQSPSSLSASVGDRVTITCRASESVDSYVNSFLHWYQQKPGKAPKLLIYRASNLQSGVPSRFSGSGSRTDFTLTISSLQPEDVATYYCQQSNEDPYTFGQGTKLEIKR
notes: Humanized IgG1 (hFc)

What follows are binders tested against T1, Recombinant Human CD14/His Protein … (assay: SPR (Biacore 8K), antibody captured (1 ug/mL) on Protein A chip, CD14-His analyte 0.1953125-25 nM, 1:1 binding).
Description: The Biacore 8K platform was used to test the kinetic and affinity properties of the antibody, operating according to system instructions and indications.
Results of Affinity Detection. The affinity of the six antibodies was measured at saturation concentration. […] Change factor is described above.

Change Factor (KD relative to mouse antibody D6DD3D001) | Kd | koff | kon | Binder
8.66 | 7.48 nM | 0.00633 s⁻¹ | 847000 M⁻¹ s⁻¹ | B1
3.24 | 2.8 nM | 0.00362 s⁻¹ | 1.29e+06 M⁻¹ s⁻¹ | B2
2.34 | 2.02 nM | 0.0026 s⁻¹ | 1.29e+06 M⁻¹ s⁻¹ | B3
6.86 | 5.93 nM | 0.0046 s⁻¹ | 775000 M⁻¹ s⁻¹ | B4
5.65 | 4.88 nM | 0.00544 s⁻¹ | 1.11e+06 M⁻¹ s⁻¹ | B5
1 | 0.864 nM | 0.00108 s⁻¹ | 1.25e+06 M⁻¹ s⁻¹ | B6

These binders were tested against T1, Recombinant Human CD14/His Protein … (assay: SPR (Biacore 8K), antibody captured on Protein A chip, CD14-His analyte 0.78125-25 nM, 1:1 binding).
Description: The Biacore 8K platform was used to test the kinetic and affinity properties of the antibody. The operation was carried out according to the system instructions and indications.
15 humanized antibodies (numbered D6DD3D002-D6DD3D0016) and 1 mouse antibody (number D6DD3D001) were tested. […] The capture concentration was 1 μg/mL. In Table 8-3, the change factor is the ratio of the equilibrium dissociation constant KD of the humanized to mouse antibody, and reflects the change in affinity after humanization.

Change Factor (KD relative to mouse antibody D6DD3D001) | Kd | koff | kon | Binder
3.24 | 1.57 nM | 0.00329 s⁻¹ | 2.09e+06 M⁻¹ s⁻¹ | B7
1.32 | 0.639 nM | 0.00109 s⁻¹ | 1.71e+06 M⁻¹ s⁻¹ | B8
3.9 | 1.89 nM | 0.00379 s⁻¹ | 2.01e+06 M⁻¹ s⁻¹ | B9
1.14 | 0.555 nM | 0.00105 s⁻¹ | 1.9e+06 M⁻¹ s⁻¹ | B10
3.34 | 1.62 nM | 0.00342 s⁻¹ | 2.11e+06 M⁻¹ s⁻¹ | B11
3.34 | 1.62 nM | 0.00295 s⁻¹ | 1.82e+06 M⁻¹ s⁻¹ | B12
1.09 | 0.529 nM | 0.000798 s⁻¹ | 1.51e+06 M⁻¹ s⁻¹ | B13
1.24 | 0.602 nM | 0.000862 s⁻¹ | 1.43e+06 M⁻¹ s⁻¹ | B14
4.1 | 1.99 nM | 0.00326 s⁻¹ | 1.64e+06 M⁻¹ s⁻¹ | B15
3.57 | 1.73 nM | 0.00292 s⁻¹ | 1.69e+06 M⁻¹ s⁻¹ | B16
1 | 0.485 nM | 0.000858 s⁻¹ | 1.77e+06 M⁻¹ s⁻¹ | B6
3.32 | 1.61 nM | 0.00282 s⁻¹ | 1.76e+06 M⁻¹ s⁻¹ | B17
3.71 | 1.8 nM | 0.00318 s⁻¹ | 1.77e+06 M⁻¹ s⁻¹ | B18
1.1 | 0.532 nM | 0.000843 s⁻¹ | 1.59e+06 M⁻¹ s⁻¹ | B19
1.39 | 0.672 nM | 0.000904 s⁻¹ | 1.35e+06 M⁻¹ s⁻¹ | B20
3.69 | 1.79 nM | 0.00293 s⁻¹ | 1.64e+06 M⁻¹ s⁻¹ | B21
